In publication PMC5103067, “Structural basis of GM-CSF and IL-2 sequestration by the viral decoy receptor GIF” (Nature Communications, 2016):

T1: Orf virus GM-CSF/IL-2 inhibition factor (GIF), residues 1-265, C-terminal His6-tag (Orf virus, UniProt Q9J5U5, N-linked glycans)
T1 construct: also called His-tagged GIF; Orf GIF; source: HEK293T, transient expression (pHLsec), secreted; alone purified by IMAC and SEC with 0.15% CHAPS
T1 sequence: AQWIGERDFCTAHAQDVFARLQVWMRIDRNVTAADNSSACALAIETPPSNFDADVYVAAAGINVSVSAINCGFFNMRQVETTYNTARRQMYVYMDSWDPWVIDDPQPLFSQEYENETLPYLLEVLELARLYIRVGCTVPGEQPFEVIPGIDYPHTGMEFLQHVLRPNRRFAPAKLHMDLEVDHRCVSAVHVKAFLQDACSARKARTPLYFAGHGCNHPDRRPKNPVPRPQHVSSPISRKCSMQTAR

T2: Biotinylated Orf GIF, residues 1-265, C-terminal AviTag (Orf virus, UniProt Q9J5U5, biotin (AviTag, by co-expressed E. coli BirA))
T2 construct: also called biotinylated GIF; wild-type GIF; source: HEK293T, co-transfected with BirA (pDisplayBirA-ER), expression medium desalted into HBS; not shown: AviTag, C-terminal, kept
T2 sequence: T1 sequence

T3: Biotinylated Orf GIF, residues 1-265, C-terminal AviTag (Orf virus, UniProt Q9J5U5, biotin (AviTag, by co-expressed E. coli BirA))
T3 chain: T1 sequence

B1: ovine IL-2 (interleukin-2), residues 21-155, as used as the ligand in BLI (ligand)
chain: APTSSSTGNTMKEVKSLLLDLQLLLEKVKNPENLKLSRMHTFNFYMPKVNATELKHLKCLLEELKLLEEVLDLAPSKNLNTREIKDSMDNIKRIVLELQGSETRFTCEYDDATVKAVEFLNKWITFCQSIYSTMT
B2: ovine IL-2, residues 21-155, C-terminal His6-tag, from HEK293T (ligand, UniProt P19114 21-155, looked up)
chain: B1 chain
notes: also called oIL-2; source: HEK293T, transient expression (pHLsec); purified (TALON IMAC, SEC) or co-expressed with GIF and purified as a complex
B3: ovine IL-2 as used as ligand in bio-layer interferometry (ligand, UniProt P19114 21-155, looked up)
chain: B1 chain
notes: also called oIL-2
B4: ovine GM-CSF (granulocyte macrophage colony-stimulating factor), residues 18-144, as used as the ligand in BLI (ligand)
chain: APTRQPSPVTRPWQHVDAIKEALSLLNDSTDTAAVMDETVEVVSEMFDSQEPTCLQTRLELYKQGLRGSLTSLTGSLTMMASHYKKHCPPTQETSCETQIITFKSFKENLKDFLFIIPFDCWEPVQK
B5: ovine GM-CSF, residues 18-144, C-terminal His6-tag, from HEK293T (ligand, UniProt P28773 18-144, looked up)
chain: B4 chain
notes: also called oGM-CSF; source: HEK293T, transient expression (pHLsec); purified (TALON IMAC, SEC) or co-expressed with GIF and purified as a complex
B6: ovine GM-CSF as used as ligand in bio-layer interferometry (ligand, UniProt P28773 18-144, looked up)
chain: B4 chain
notes: also called oGMCSF; oGM-CSF

Columns and labels:
[1] = molecular target: GIF R45A/R106A, residues 1-265, C-terminal AviTag, biotinylated (Orf virus) (UniProt Q9J5U5); test: BLI; biotinylated GIF (wild type or mutant) on streptavidin-coated biosensors, quenched with biocytin; ligand GM-CSF 1-8 uM or IL-2 3.75-30 nM; PBS pH 7.4, 0.01% BSA, 0.002% Tween-20; 298 K; Octet RED96; 1:1 interaction model; averages of triplicates
[2] = molecular target: GIF K211A, residues 1-265, C-terminal AviTag, biotinylated (Orf virus) (UniProt Q9J5U5); test: as above
[3] = molecular target: GIF R106A/R188A, residues 1-265, C-terminal AviTag, biotinylated (Orf virus) (UniProt Q9J5U5); test: as above
[4] = molecular target: GIF R45A, residues 1-265, C-terminal AviTag, biotinylated (Orf virus) (UniProt Q9J5U5); test: as above
[5] = molecular target: GIF H232A, residues 1-265, C-terminal AviTag, biotinylated (Orf virus) (UniProt Q9J5U5); test: as above
[6] = molecular target: GIF R188A, residues 1-265, C-terminal AviTag, biotinylated (Orf virus) (UniProt Q9J5U5); test: as above
[7] = molecular target: T1, Orf virus GM-CSF/IL-2 inhibition factor …; test: SEC-MALS; complexes purified after co-expression of GIF and cytokine in HEK293T; 1-2 mg/ml; Superdex Increase 10/300 GL in HBS pH 7.5, 298 K; conditions: both partners purified
[8] = molecular target: T2, Biotinylated Orf GIF, residues 1-265, …; test: BLI; biotinylated GIF on streptavidin sensors, quenched with biocytin; cytokine in solution (GM-CSF 1-8 μM, IL-2 3.75-30 nM); PBS pH 7.4, 0.01% BSA, 0.002% Tween-20, 298 K; 1:1 model, triplicates; conditions: one partner purified
[9] = molecular target: T3, Biotinylated Orf GIF, residues 1-265, …; test: BLI

Binder | Kd [1] | Kd [2] | Kd [3] | Kd [4] | Kd [5] | Kd [6] | stoichiometry N [7] | Kd [8] | koff [9]
B1 | 0.45 nM | 0.46 nM | 5.3 nM | 0.69 nM | 0.63 nM | 4.8 nM | – | – | –
B2 | – | – | – | – | – | – | 2 cytokines per GIF dimer (2:2) | – | –
B3 | – | – | – | – | – | – | – | 0.47 nM | 0.00015 s⁻¹
B4 | 380 nM | 3700 nM | 270 nM | 280 nM | 670 nM | 570 nM | – | – | –
B5 | – | – | – | – | – | – | 2 cytokines per GIF dimer (2:2) | – | –
B6 | – | – | – | – | – | – | – | 27 nM | 6.2e-05 s⁻¹
